# Results: the RNAGym collection of RNA variant scans (doi:10.1073/pnas.2313332121)
# B1: TPR t1 (parent)
# chain: GACCAAUCUGCCCUCAGAGCUCGAGAACAUCUUCGGAUGCAGAGGAGGCAGGCUUCGGUGGCGCGAUAGCGCCAACGUCCUCAACCUCCAAUGCAUCCCACCACAUGAUGAUGCCUGAAGAGCCUUGGUUUUUUG
# Variants of: B1
# Experiment: polymerase ribozyme fitness, log enrichment relative to wild type (log ratio); higher = more active; in vitro selection for triplet polymerase activity
# Procedure, shortened: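 Each subunit of a heterodimeric triplet polymerase ribozyme was represented by a PCR-built, transcribed mutant library that underwent triplicate single-round in vitro selection with frozen incubation at −7 °C. Extended constructs were recovered by gel excision, streptavidin-bead capture and RT-PCR, and Illumina sequencing of input and output libraries kept genotypes with ≥10 input reads and ≥1 read per output. Fitness is the logarithm of genotype enrichment relative to wild-type enrichment, from inverse-variance-weighted replicate averages, with a logarithm base of 2.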
row,Variant,polymerase ribozyme fitness (log ratio)
1,U112G U116G,-2.14
2,C62A G113U C114G,-4.19
3,U14C G77A,-2.6
4,A37G G60U C72G C99A A103G C114U U129C,-7.36
5,C3U A29C G61U,-2.81
6,C8G C115A U130G,1.67
7,C28U G45A C49G C72U G122A,-4.63
8,C12U C53A G58C C82G G128A,-2.46
9,G71U C76A,-5.51
10,C3A G39A A68G G128U,-4.5
11,C13U C64U A74U C82G,-1.47
12,C11G U96G,-0.325
13,G61A G120C,1.14
14,C11U G52U C70A,-1.84
15,C3U C11U U33A,-4.58
16,C13U G51U C79G G127A,-2.92
17,C13G A41U C97U,-3.81
18,A74C G120A U132G U134A,0.272
19,A41G C53A C64A A121G,-4.97
20,G63U G93U C124G,-0.616
21,G93U A111G,-0.352

row,Variant,polymerase ribozyme fitness (log ratio)
1,G69A U130A U133G,-2.25
2,C11A C73U C76A U78G U131A,-4.06
3,C8A G63A,-0.863
4,A5U C64U,-0.49
5,U7G C89A U116A G117A,-2.89
6,G51A C70G,-6.9
7,C49G G63A U78A C99A,-8.17
8,A37U G57A U109G,-5.89
9,C72G C101G,-1.33
10,C72G U129G,-1.34
11,C40G,-0.921
12,A2C G63U C124U,-1.65
13,U21C A27U C123U,-4.79
14,G39C G77C C115U G128A,-4.5
15,C8G G58A C70U U96A,-1.13
16,C53G C80G C115A,-2.69
17,U38C G42C U78A A84C,-3.16
18,C11A G48A C70U C114U,-6.22
19,A6C G61U U87A,-0.857
20,A6C C85G U92A U112G,-6.59
21,C28U A46G U129G,-2.5

row,Variant,polymerase ribozyme fitness (log ratio)
1,C31U C49G G63U A75C,-6.11
2,C40U C62G G127C,-3.27
3,C3U A29U,-1.77
4,C102A G113A,-2.68
5,A2U G63A A84U C86U,-3.92
6,C8G C15U U54G G117C,0.947
7,G17A G93U,-4.76
8,G47A U55A G60C A90U U92A,-4
9,C22U A37C,-4.23
10,G19A C70G C85U C114G,-7.51
11,C4U C31U G61U C98G C101A C114U,-6.59
12,C8U C22U A119U,-2.76
13,U116G,-1.95
14,G39A C53U G61C A84U G127C,-2.2
15,C88A C102A G107A A111C U116G C123G U125A,-6.39
16,C4G C115A,-3.11
17,U9A G10A C40A C70U U78C G110U C123U,-4.89
18,A26U C101A C114A C123G,-6.37
19,C62A U130A,-1.33
20,C72G G135C,-1.17
21,G17U C72U U130A,-2.54

row,Variant,polymerase ribozyme fitness (log ratio)
1,A2G U14C C70U,-2.68
2,G10C A41C G48A A74U C101U,-3.49
3,U9G U21A,-0.191
4,C13G G47U C114A,-4.31
5,A43G C64G U87G G110A,-6.77
6,G51U G93A,-4.12
7,G77U C79A,-2.32
8,G36U G39C G69A C82A G120U,-5.69
9,U32A A121U U133A,-1.22
10,A41G G61U U96A A105U U133C,-6.14
11,C4U,-0.513
12,C13U G35A G45A U87G,-4.53
13,G69C G122U C124U,-0.632
14,G58C U67C A100U G120C,-6.28
15,C22A G69U,-3.88
16,C40U A95G,-1.37
17,G52C U116C,-1.72
18,C49G C82G A118U,-0.627
19,C88A C94U,-0.581
20,U21G C64U C72U C73G,-3.77
